Experimental data taken from patent US20260124312A1 (Bicycle, published 2026).
*1 amine or outer side, *2 acyl side, *3 side chain or, on linkers, in order; H or OH if unused. Bridges are numbered along the chain shown (N, C = ends). Where no end group is shown, it is not given here. [ ]: non-standard residue; d: D form. The star is where a group is joined. DM1‑SS‑ = DM1-SS- (SPDB) linker/toxin, COc1cc2cc(c1Cl)N(C)C(=O)C[C@H](OC(=O)[C@H](C)N(C)C(=O)CCSSCCCC(=O)*)[C@]1(C)O[C@H]1[C@H](C)[C@@H]1C[C@@](O)(NC(=O)O1)[C@H](OC)/C=C/C=C(\C)C2; TATA = O=C(CC[*:1])N1CN(C(=O)CC[*:2])CN(C(=O)CC[*:3])C1; DM1‑SS(SO3H)‑ = DM1-SS(SO3H)- (SO3H-SPDB) linker/toxin; DM1‑SS‑(Me)‑ = DM1-SS-(Me)- (SPP) linker/toxin; PABC = O=C(OCc1ccc(N[*:1])cc1)[*:2]; Glutaryl = O=C(CCCC(=O)[*:2])[*:1]; hArg = N=C(N)NCCCC[C@H](N)C(=O)O; Cit = NC(=O)NCCC[C@H](N)C(=O)O; βAla = NCCC(=O)O; Sar = CNCC(=O)O

Tests used:
[1] = biological target: T1, Mouse EphA2 (Ecto) (Mouse, UniProt Q03145 26-538); assay: FP competition vs Reference Compound C
T1 construct: extracellular domain
Description: The gain used for analysis was determined for each tracer at the end of the 60 minutes where there was no protein in the well. […] “Lig” was a defined value of the concentration of tracer used.

[2] = biological target: Human EphA2 (in house, 0.95 mol biotin/monomer) (Human) (UniProt P29317); assay: SPR (Biacore), biotinylated human EphA2 on streptavidin chip
[3] = biological target: Mouse EphA2 Fc fusion (R&D Systems 639-A2) (Mouse) (UniProt Q03145); assay: SPR (Biacore), mouse EphA2-Fc captured by anti-human IgG
[4] = biological target: Rat EphA2 (in house, 1.4 mol biotin/monomer) (Rat) (UniProt D3ZBN3); assay: SPR (Biacore), biotinylated rat EphA2 on streptavidin chip

Mouse EphA2 Fc fusion (R&D Systems 639-A2) (Mouse), sequence (Q03145 26-538): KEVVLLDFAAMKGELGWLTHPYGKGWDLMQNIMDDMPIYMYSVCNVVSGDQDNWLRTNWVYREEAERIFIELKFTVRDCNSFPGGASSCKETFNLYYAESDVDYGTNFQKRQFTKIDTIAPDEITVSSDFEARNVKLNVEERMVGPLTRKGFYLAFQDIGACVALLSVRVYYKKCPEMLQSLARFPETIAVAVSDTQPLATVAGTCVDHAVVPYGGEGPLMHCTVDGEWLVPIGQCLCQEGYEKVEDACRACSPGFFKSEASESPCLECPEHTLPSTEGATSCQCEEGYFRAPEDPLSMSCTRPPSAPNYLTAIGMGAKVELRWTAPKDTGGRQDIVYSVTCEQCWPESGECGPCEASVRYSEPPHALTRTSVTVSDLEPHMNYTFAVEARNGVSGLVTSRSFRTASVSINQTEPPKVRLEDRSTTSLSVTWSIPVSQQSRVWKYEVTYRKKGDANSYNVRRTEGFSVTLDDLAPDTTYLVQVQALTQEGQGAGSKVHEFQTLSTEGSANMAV
Human EphA2 (in house, 0.95 mol biotin/monomer) (Human), sequence (P29317 25-534 limits assumed): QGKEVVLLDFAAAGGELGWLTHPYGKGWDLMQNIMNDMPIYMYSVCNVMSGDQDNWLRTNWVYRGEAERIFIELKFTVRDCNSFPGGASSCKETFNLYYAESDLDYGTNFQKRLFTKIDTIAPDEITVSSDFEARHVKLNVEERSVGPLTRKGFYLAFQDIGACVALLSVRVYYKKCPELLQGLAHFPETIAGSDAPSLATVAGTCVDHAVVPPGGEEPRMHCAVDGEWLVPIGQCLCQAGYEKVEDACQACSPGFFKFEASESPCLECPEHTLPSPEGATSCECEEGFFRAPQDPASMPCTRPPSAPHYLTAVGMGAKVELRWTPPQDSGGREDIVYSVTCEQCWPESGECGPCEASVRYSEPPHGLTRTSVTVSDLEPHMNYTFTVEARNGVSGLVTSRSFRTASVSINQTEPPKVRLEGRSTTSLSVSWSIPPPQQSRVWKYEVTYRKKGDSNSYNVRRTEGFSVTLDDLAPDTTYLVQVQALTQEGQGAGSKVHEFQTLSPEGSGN
T1 sequence (Q03145 26-538): as the sequence (Q03145 26-538) above

Binder	Ki [1] [nM]	Kd [2] [nM]	koff [2] [s⁻¹]	kon [2] [M⁻¹ s⁻¹]	t1/2 [2] [min]	Kd [3] [nM]	koff [3] [s⁻¹]	kon [3] [M⁻¹ s⁻¹]	t1/2 [3] [min]	Kd [4] [nM]	koff [4] [s⁻¹]	kon [4] [M⁻¹ s⁻¹]	t1/2 [4] [min]
ACPLVNPLCLHPGWTCLHG (linker 2-9-16 via TATA; not fully specified (C-terminus)) [Bicycle Compound 73]	7.27	–	–	–	–	–	–	–	–	–	–	–	–
{MMAE-PABC-Cit-Trp-Glutaryl}-[βAla][Sar][Sar][Sar][Sar][Sar][Sar][Sar][Sar][Sar][Sar]A[hArg]DCPLVNPLCLHPGWTC (linker 15-22-29 via TATA; not fully specified (C-terminus)) [BCY6034]	–	1.64	0.00365	2.23e+06	3.2	–	–	–	–	–	–	–	–
{DM1‑SS(SO3H)‑}-[βAla][Sar][Sar][Sar][Sar][Sar][Sar][Sar][Sar][Sar][Sar]A[hArg]DCPLVNPLCLHPGWTC (linker 15-22-29 via TATA; not fully specified (C-terminus)) [BCY6082]	–	2.42	0.00242	987000	4.8	18.3	0.00597	327000	1.9	28.8	0.00364	126000	3.2
{MMAE-PABC-Cit-Val-Glutaryl}-[βAla][Sar][Sar][Sar][Sar][Sar][Sar][Sar][Sar][Sar][Sar]A[hArg]DCPLVNPLCLHPGWTC (linker 15-22-29 via TATA; not fully specified (C-terminus)) [BCY6033]	–	3.41	0.00343	999000	3.5	21.8	0.00637	292000	1.8	166	0.00442	26700	2.6
{DM1‑SS‑(Me)‑}-[βAla][Sar][Sar][Sar][Sar][Sar][Sar][Sar][Sar][Sar][Sar]A[hArg]DCPLVNPLCLHPGWTC (linker 15-22-29 via TATA; not fully specified (C-terminus)) [BCY6032]	–	2.1	0.00527	2.52e+06	2.2	–	–	–	–	–	–	–	–
{DM1‑SS‑}-[βAla][Sar][Sar][Sar][Sar][Sar][Sar][Sar][Sar][Sar][Sar]A[hArg]DCPLVNPLCLHPGWTC (linker 15-22-29 via TATA; not fully specified (C-terminus)) [BCY6031]	–	1.99	0.00495	2.49e+06	2.3	–	–	–	–	–	–	–	–
